# Numbering of substitutions follows the chain as printed.
# B1: R340 duplex (crystal) (dsRNA)
# RNA 1: UAAUCGGGAUUCCGGAUA
# RNA 2: UAAUCGGGAUUCCGGAUA
# modifications: 5-fluorouracil at position 1 (written as U)
# B2: R263 (EMSA) (ssRNA)
# RNA: AAAUCGGGAUUCCGGAUA
# B3: R263 duplex (crystal) (dsRNA)
# RNA 1: AAAUCGGGAUUCCGGAUA
# RNA 2: AAAUCGGGAUUCCGGAUA
# Assays:
# [1] = target: T1, PUS1 wild type (tagless, crystal) (Saccharomyces cerevisiae, UniProt Q12211 1-544); experiment: X-ray crystallography (2.9 A); EMSA: 100 nM R263 with 100 nM-1 uM PUS1 in 100 ul under PUS1 activity assay conditions (buffer not in the material), 90 min, SYBR Gold stain; crystals: 7R9G 0.05 M ammonium sulfate, 0.05 M Bis-Tris pH 6.0, 26% pentaerythritol ethoxylate, 4 C; 7R9F 0.2 M K/Na tartrate, 18% PEG 3350, 25 C; settings: protein: recombinant; tags: none; chain copies: 2; self-duplex of 2 copies, same duplex as R263
# T1 sequence: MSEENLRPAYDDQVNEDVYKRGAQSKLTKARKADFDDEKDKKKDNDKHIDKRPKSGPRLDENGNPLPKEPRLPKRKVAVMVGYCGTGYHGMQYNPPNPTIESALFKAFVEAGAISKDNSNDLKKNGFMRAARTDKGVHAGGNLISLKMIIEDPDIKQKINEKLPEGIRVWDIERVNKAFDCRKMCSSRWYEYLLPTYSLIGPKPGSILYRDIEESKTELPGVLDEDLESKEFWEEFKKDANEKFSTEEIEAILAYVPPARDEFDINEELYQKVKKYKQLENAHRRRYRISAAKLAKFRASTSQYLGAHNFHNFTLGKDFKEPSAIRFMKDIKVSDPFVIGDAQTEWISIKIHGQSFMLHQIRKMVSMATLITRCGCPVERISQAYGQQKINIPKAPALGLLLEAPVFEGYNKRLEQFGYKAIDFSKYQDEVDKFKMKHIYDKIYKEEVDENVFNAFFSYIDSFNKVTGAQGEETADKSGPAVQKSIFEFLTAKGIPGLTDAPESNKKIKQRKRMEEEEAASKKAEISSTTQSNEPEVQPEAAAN
# [2] = target: T2, PUS1 wild type (His-tagged) (Saccharomyces cerevisiae, UniProt Q12211 1-544); experiment: EMSA; 100 nM RNA, increasing protein; EMSA: 100 nM R263 with 100 nM-1 uM PUS1 in 100 ul under PUS1 activity assay conditions (buffer not in the material), 90 min, SYBR Gold stain; crystals: 7R9G 0.05 M ammonium sulfate, 0.05 M Bis-Tris pH 6.0, 26% pentaerythritol ethoxylate, 4 C; 7R9F 0.2 M K/Na tartrate, 18% PEG 3350, 25 C; settings: protein: recombinant; tags: N-terminal 6xHis; predicted short stem-loop; strand state in EMSA not determined
# T2 sequence: T1 sequence
# PUS1 D134A (His-tagged) = target: T3, PUS1 D134A (His-tagged) (Saccharomyces cerevisiae, UniProt Q12211 1-544, D134A); experiment: as above; settings: protein: recombinant; tags: N-terminal 6xHis; predicted short stem-loop; strand state in EMSA not determined
# T3 sequence: T1 sequence with D134A
# [3] = target: T4, PUS1 D134A (tagless, crystal) (Saccharomyces cerevisiae, UniProt Q12211 1-544, D134A); experiment: X-ray crystallography (2.4 A); sulfate ion near RNA 5' end; EMSA: 100 nM R263 with 100 nM-1 uM PUS1 in 100 ul under PUS1 activity assay conditions (buffer not in the material), 90 min, SYBR Gold stain; crystals: 7R9G 0.05 M ammonium sulfate, 0.05 M Bis-Tris pH 6.0, 26% pentaerythritol ethoxylate, 4 C; 7R9F 0.2 M K/Na tartrate, 18% PEG 3350, 25 C; settings: protein: recombinant; tags: none; chain copies: 2; self-duplex of 2 copies; positions 2-10 paired with non-Watson-Crick pairs (two central G:G reverse Hoogsteen); 3' ends disordered
# T4 sequence: T1 sequence with D134A
binder,measurement,setting,value
B1,binding result,[1],binds
B2,binding result,[2],binds
same,binding result,PUS1 D134A (His-tagged),binds
B3,binding result,[3],binds

# — publication PMC10631681, “The structural basis of mRNA recognition and binding by yeast pseudouridine synthase PUS1”
